# According to paper PMC5864845, “Engineering enhanced cellobiohydrolase activity” (Nature Communications, 2018):
# B1: TrCel7A (Trichoderma reesei) (protein)
# chain: QSACTLQSETHPPLTWQKCSSGGTCTQQTGSVVIDANWRWTHATNSSTNCYDGNTWSSTLCPDNETCAKNCCLDGAAYASTYGVTTSGNSLSIGFVTQSAQKNVGARLYLMASDTTYQEFTLLGNEFSFDVDVSQLPCGLNGALYFVSMDADGGVSKYPTNTAGAKYGTGYCDSQCPRDLKFINGQANVEGWEPSSNNANTGIGGHGSCCSEMDIWEANSISEALTPHPCTTVGQEICEGDGCGGTYSDNRYGGTCDPDGCDWNPYRLGNTSFYGPGSSFTLDTTKKLTVVTQFETSGAINRYYVQNGVTFQQPNAELGSYSGNELNDDYCTAEEAEFGGSSFSDKGGLTQFKKATSGGMVLVMSLWDDYYANMLWLDSTYPTNETSSTPGAVRGSCSTSSGVPAQVESQSPNAKVTFSNIKFGPIGSTGNPSGGNPPGGNRGTTTTRRPATTTGSSPGPTQSHYGQCGGIGYSGPTVCASGTTCQVLNPYYSQCL
# notes: full length wild type (catalytic domain, linker, CBM1), secreted and purified from Trichoderma reesei AST1116 (QM6A, cbh1 deletion) host, pTrEno
# Substrate: [H][C@@]1(O[C@H]2[C@H](O)[C@@H](O)[C@H](Oc3ccc([N+](=O)[O-])cc3)O[C@@H]2CO)O[C@H](CO)[C@H](O)[C@H](O)[C@H]1O
# Test: p-nitrophenol release, A405, Michaelis-Menten fit
# Format: biochemical, Trichoderma reesei
# Details: 20 mM acetate pH 5.0, 100 mM NaCl, 40 °C
# Protocol: p-nitrophenol release, A405, Michaelis-Menten fit on […] | Vmax and Km were determined using p-nitrophenyl-β-D-lactopyranoside (pNPL, Sigma) as substrate
protein,measurement,value
B1,Km,2195 ± 880 µM
same,kcat,0.2377 ± 0.0175 s⁻¹
